# Measured values taken from US20230250154A1.
# Target: Protease Mixtures
# Experiment: cell-based or functional assay
"Protease Inhibition (% of WT); Protease Mixtures, Collagen Substrate","Protease Inhibition (% of WT); Protease Mixtures, IGD Substrate",Binder
180 % of WT,229 % of WT,"Variant A2M, bait region SEQ ID NO 127, P01023 24-1474 (protein) SVSGKPQYMVLVPSLLHTETTEKGCVLLSYLNETVTVSASLESVRGNRSLFTDLEAENDVLHCVAFAVPKSSSNEEVMFLTVQVKGPTQEFKKRTTVMVKNEDSLVFVQTDKSIYKPGQTVKFRVVSMDENFHPLNELIPLVYIQDPKGNRIAQWQSFQLEGGLKQFSFPLSSEPFQGSYKVVVQKKSGGRTEHPFTVEEFVLPKFEVQVTVPKIITILEEEMNVSVCGLYTYGKPVPGHVTVSICRKYSDASDCHGEDSQAFCEKFSGQLNSHGCFYQQVKTKVFQLKRKEYEMKLHTEAQIQEEGTVVELTGRQSSEITRTITKLSFVKVDSHFRQGIPFFGQVRLVDGKGVPIPNKVIFIRGNEANYYSNATTDEHGLVQFSINTTNVMGTSLTVRVNYKDRSPCYGYQWVSEEHEEAHHTAYLVFSPSKSFVHLEPMSHELPCGHTQTVQAHYILNGGTLLGLKKLSFYYLIMAKGGIVRTGTHGLLVKQEDMKGHFSISIPVKSDIAPVARLLIYAVLPTGDVIGDSAKYDVENCLANKVDLSFSPSQSLPASHAHLRVTAAPQSVCALRAVDQSVLLMKPDAELSASSVYNLLPEKDLTGFPGPLNDQDDEDCINRHNVYINGITYTPVSSTNEKDMYSFLEDMGLKAFTNSKIRKPKMCPQLEQYEMHGPIPENFFGVSELEGRGSEAIPMSIPTEGEGEGEGVEEPHTKLRKYFPETWIWDLVVVNSAGVAEVGVTVPDTITEWKAGAFCLSEDAGLGISSTASLRAFQPFFVELTMPYSVIRGEAFTLKATVLNYLPKCIRVSVQLEASPAFLAVPVEKEQAPHCICANGRQTVSWAVTPKSLGNVNFTVSAEALESQELCGTEVPSVPEHGRKDTVIKPLLVEPEGLEKETTFNSLLCPSGGEVSEELSLKLPPNVVEESARASVSVLGDILGSAMQNTQNLLQMPYGCGEQNMVLFAPNIYVLDYLNETQQLTPEIKSKAIGYLNTGYQRQLNYKHYDGSYSTFGERYGRNQGNTWLTAFVLKTFAQARAYIFIDEAHITQALIWLSQRQKDNGCFRSSGSLLNNAIKGGVEDEVTLSAYITIALLEIPLTVTHPVVRNALFCLESAWKTAQEGDHGSHVYTKALLAYAFALAGNQDKRKEVLKSLNEEAVKKDNSVHWERPQKPKAPVGHFYEPQAPSAEVEMTSYVLLAYLTAQPAPTSEDLTSATNIVKWITKQQNAQGGFSSTQDTVVALHALSKYGAATFTRTGKAAQVTIQSSGTFSSKFQVDNNNRLLLQQVSLPELPGEYSMKVTGEGCVYLQTSLKYNILPEKEEFPFALGVQTLPQTCDEPKAHTSFQISLSVSYTGSRSASNMAIVDVKMVSGFIPLKPTVKMLERSNHVSRTEVSSNHVLIYLDKVSNQTLSLFFTVLQDVPVRDLKPAIVKVYDYYETDEFAIAEYNAPCSKDLGNADYKDDDDKGASHHHHHH"
–,150 % of WT,"Variant A2M, bait region SEQ ID NO 125, P01023 24-1474 (protein) SVSGKPQYMVLVPSLLHTETTEKGCVLLSYLNETVTVSASLESVRGNRSLFTDLEAENDVLHCVAFAVPKSSSNEEVMFLTVQVKGPTQEFKKRTTVMVKNEDSLVFVQTDKSIYKPGQTVKFRVVSMDENFHPLNELIPLVYIQDPKGNRIAQWQSFQLEGGLKQFSFPLSSEPFQGSYKVVVQKKSGGRTEHPFTVEEFVLPKFEVQVTVPKIITILEEEMNVSVCGLYTYGKPVPGHVTVSICRKYSDASDCHGEDSQAFCEKFSGQLNSHGCFYQQVKTKVFQLKRKEYEMKLHTEAQIQEEGTVVELTGRQSSEITRTITKLSFVKVDSHFRQGIPFFGQVRLVDGKGVPIPNKVIFIRGNEANYYSNATTDEHGLVQFSINTTNVMGTSLTVRVNYKDRSPCYGYQWVSEEHEEAHHTAYLVFSPSKSFVHLEPMSHELPCGHTQTVQAHYILNGGTLLGLKKLSFYYLIMAKGGIVRTGTHGLLVKQEDMKGHFSISIPVKSDIAPVARLLIYAVLPTGDVIGDSAKYDVENCLANKVDLSFSPSQSLPASHAHLRVTAAPQSVCALRAVDQSVLLMKPDAELSASSVYNLLPEKDLTGFPGPLNDQDDEDCINRHNVYINGITYTPVSSTNEKDMYSFLEDMGLKAFTNSKIRKPKMCPQLEQYEMHGPSELEGRGSIPENFFGVEAIPMSIPTSEDLVVQIVEEPHTKLRKYFPETWIWDLVVVNSAGVAEVGVTVPDTITEWKAGAFCLSEDAGLGISSTASLRAFQPFFVELTMPYSVIRGEAFTLKATVLNYLPKCIRVSVQLEASPAFLAVPVEKEQAPHCICANGRQTVSWAVTPKSLGNVNFTVSAEALESQELCGTEVPSVPEHGRKDTVIKPLLVEPEGLEKETTFNSLLCPSGGEVSEELSLKLPPNVVEESARASVSVLGDILGSAMQNTQNLLQMPYGCGEQNMVLFAPNIYVLDYLNETQQLTPEIKSKAIGYLNTGYQRQLNYKHYDGSYSTFGERYGRNQGNTWLTAFVLKTFAQARAYIFIDEAHITQALIWLSQRQKDNGCFRSSGSLLNNAIKGGVEDEVTLSAYITIALLEIPLTVTHPVVRNALFCLESAWKTAQEGDHGSHVYTKALLAYAFALAGNQDKRKEVLKSLNEEAVKKDNSVHWERPQKPKAPVGHFYEPQAPSAEVEMTSYVLLAYLTAQPAPTSEDLTSATNIVKWITKQQNAQGGFSSTQDTVVALHALSKYGAATFTRTGKAAQVTIQSSGTFSSKFQVDNNNRLLLQQVSLPELPGEYSMKVTGEGCVYLQTSLKYNILPEKEEFPFALGVQTLPQTCDEPKAHTSFQISLSVSYTGSRSASNMAIVDVKMVSGFIPLKPTVKMLERSNHVSRTEVSSNHVLIYLDKVSNQTLSLFFTVLQDVPVRDLKPAIVKVYDYYETDEFAIAEYNAPCSKDLGNADYKDDDDKGASHHHHHH"
–,237 % of WT,"Variant A2M, bait region SEQ ID NO 124, P01023 24-1474 (protein) SVSGKPQYMVLVPSLLHTETTEKGCVLLSYLNETVTVSASLESVRGNRSLFTDLEAENDVLHCVAFAVPKSSSNEEVMFLTVQVKGPTQEFKKRTTVMVKNEDSLVFVQTDKSIYKPGQTVKFRVVSMDENFHPLNELIPLVYIQDPKGNRIAQWQSFQLEGGLKQFSFPLSSEPFQGSYKVVVQKKSGGRTEHPFTVEEFVLPKFEVQVTVPKIITILEEEMNVSVCGLYTYGKPVPGHVTVSICRKYSDASDCHGEDSQAFCEKFSGQLNSHGCFYQQVKTKVFQLKRKEYEMKLHTEAQIQEEGTVVELTGRQSSEITRTITKLSFVKVDSHFRQGIPFFGQVRLVDGKGVPIPNKVIFIRGNEANYYSNATTDEHGLVQFSINTTNVMGTSLTVRVNYKDRSPCYGYQWVSEEHEEAHHTAYLVFSPSKSFVHLEPMSHELPCGHTQTVQAHYILNGGTLLGLKKLSFYYLIMAKGGIVRTGTHGLLVKQEDMKGHFSISIPVKSDIAPVARLLIYAVLPTGDVIGDSAKYDVENCLANKVDLSFSPSQSLPASHAHLRVTAAPQSVCALRAVDQSVLLMKPDAELSASSVYNLLPEKDLTGFPGPLNDQDDEDCINRHNVYINGITYTPVSSTNEKDMYSFLEDMGLKAFTNSKIRKPKMCPQLEQYEMHGPKEEEGLGSSELEGRGSEAIPMSIPTIPENFFGVVEEPHTKLRKYFPETWIWDLVVVNSAGVAEVGVTVPDTITEWKAGAFCLSEDAGLGISSTASLRAFQPFFVELTMPYSVIRGEAFTLKATVLNYLPKCIRVSVQLEASPAFLAVPVEKEQAPHCICANGRQTVSWAVTPKSLGNVNFTVSAEALESQELCGTEVPSVPEHGRKDTVIKPLLVEPEGLEKETTFNSLLCPSGGEVSEELSLKLPPNVVEESARASVSVLGDILGSAMQNTQNLLQMPYGCGEQNMVLFAPNIYVLDYLNETQQLTPEIKSKAIGYLNTGYQRQLNYKHYDGSYSTFGERYGRNQGNTWLTAFVLKTFAQARAYIFIDEAHITQALIWLSQRQKDNGCFRSSGSLLNNAIKGGVEDEVTLSAYITIALLEIPLTVTHPVVRNALFCLESAWKTAQEGDHGSHVYTKALLAYAFALAGNQDKRKEVLKSLNEEAVKKDNSVHWERPQKPKAPVGHFYEPQAPSAEVEMTSYVLLAYLTAQPAPTSEDLTSATNIVKWITKQQNAQGGFSSTQDTVVALHALSKYGAATFTRTGKAAQVTIQSSGTFSSKFQVDNNNRLLLQQVSLPELPGEYSMKVTGEGCVYLQTSLKYNILPEKEEFPFALGVQTLPQTCDEPKAHTSFQISLSVSYTGSRSASNMAIVDVKMVSGFIPLKPTVKMLERSNHVSRTEVSSNHVLIYLDKVSNQTLSLFFTVLQDVPVRDLKPAIVKVYDYYETDEFAIAEYNAPCSKDLGNADYKDDDDKGASHHHHHH"
250 % of WT,229 % of WT,"Variant A2M, bait region SEQ ID NO 126, P01023 24-1474 (protein) SVSGKPQYMVLVPSLLHTETTEKGCVLLSYLNETVTVSASLESVRGNRSLFTDLEAENDVLHCVAFAVPKSSSNEEVMFLTVQVKGPTQEFKKRTTVMVKNEDSLVFVQTDKSIYKPGQTVKFRVVSMDENFHPLNELIPLVYIQDPKGNRIAQWQSFQLEGGLKQFSFPLSSEPFQGSYKVVVQKKSGGRTEHPFTVEEFVLPKFEVQVTVPKIITILEEEMNVSVCGLYTYGKPVPGHVTVSICRKYSDASDCHGEDSQAFCEKFSGQLNSHGCFYQQVKTKVFQLKRKEYEMKLHTEAQIQEEGTVVELTGRQSSEITRTITKLSFVKVDSHFRQGIPFFGQVRLVDGKGVPIPNKVIFIRGNEANYYSNATTDEHGLVQFSINTTNVMGTSLTVRVNYKDRSPCYGYQWVSEEHEEAHHTAYLVFSPSKSFVHLEPMSHELPCGHTQTVQAHYILNGGTLLGLKKLSFYYLIMAKGGIVRTGTHGLLVKQEDMKGHFSISIPVKSDIAPVARLLIYAVLPTGDVIGDSAKYDVENCLANKVDLSFSPSQSLPASHAHLRVTAAPQSVCALRAVDQSVLLMKPDAELSASSVYNLLPEKDLTGFPGPLNDQDDEDCINRHNVYINGITYTPVSSTNEKDMYSFLEDMGLKAFTNSKIRKPKMCPQLEQYEMHGPEGEGEGEGIPENFFGVSEDLVVQISELEGRGSVEEPHTKLRKYFPETWIWDLVVVNSAGVAEVGVTVPDTITEWKAGAFCLSEDAGLGISSTASLRAFQPFFVELTMPYSVIRGEAFTLKATVLNYLPKCIRVSVQLEASPAFLAVPVEKEQAPHCICANGRQTVSWAVTPKSLGNVNFTVSAEALESQELCGTEVPSVPEHGRKDTVIKPLLVEPEGLEKETTFNSLLCPSGGEVSEELSLKLPPNVVEESARASVSVLGDILGSAMQNTQNLLQMPYGCGEQNMVLFAPNIYVLDYLNETQQLTPEIKSKAIGYLNTGYQRQLNYKHYDGSYSTFGERYGRNQGNTWLTAFVLKTFAQARAYIFIDEAHITQALIWLSQRQKDNGCFRSSGSLLNNAIKGGVEDEVTLSAYITIALLEIPLTVTHPVVRNALFCLESAWKTAQEGDHGSHVYTKALLAYAFALAGNQDKRKEVLKSLNEEAVKKDNSVHWERPQKPKAPVGHFYEPQAPSAEVEMTSYVLLAYLTAQPAPTSEDLTSATNIVKWITKQQNAQGGFSSTQDTVVALHALSKYGAATFTRTGKAAQVTIQSSGTFSSKFQVDNNNRLLLQQVSLPELPGEYSMKVTGEGCVYLQTSLKYNILPEKEEFPFALGVQTLPQTCDEPKAHTSFQISLSVSYTGSRSASNMAIVDVKMVSGFIPLKPTVKMLERSNHVSRTEVSSNHVLIYLDKVSNQTLSLFFTVLQDVPVRDLKPAIVKVYDYYETDEFAIAEYNAPCSKDLGNADYKDDDDKGASHHHHHH"
